Laboratory results reported in patent publication US20220125919A1.

Legend:
[1] = biological target: EBV LMP2A epitope … presented by HLA-A*0201 (human); test: cell-based or functional assay
[2] = biological target: HCMV pp65 epitope … presented by HLA-A*0201 (human); test: cell-based or functional assay

In the case of “TCR that recognizes peptide … presented by A*0201 (PDB #3REV)”, the luciferase induction relative to uninfected controls, short cassette design 9AA [1] was 12, the luciferase induction relative to uninfected controls, short cassette design 17AA [1] was 10.3 and the luciferase induction relative to uninfected controls, short cassette design 25AA [1] was 14.6. For the same substance, the luciferase induction relative to uninfected controls, short cassette design DPP [1] was 1.1 and the luciferase induction relative to uninfected controls, short cassette design RR [1] was 8.5.

With “TCR that recognizes peptide … presented by A*0201 (PDB #5D2N)” the luciferase induction relative to uninfected controls, short cassette design 9AA [2] was 33.6, the luciferase induction relative to uninfected controls, short cassette design 17AA [2] was 42.8 and the luciferase induction relative to uninfected controls, short cassette design 25AA [2] was 42.3. For the same substance, the luciferase induction relative to uninfected controls, short cassette design DPP [2] was 0.9, the luciferase induction relative to uninfected controls, short cassette design RR [2] was 21.7 and the luciferase induction, in vitro T cell activation assay, short cassette design AAY [2] was 24.5. For the same substance, the luciferase induction, in vitro T cell activation assay, targeting-sequence short cassette design A [2] was 32.5, the luciferase induction, in vitro T cell activation assay, targeting-sequence short cassette design B [2] was 31.8 and the luciferase induction, in vitro T cell activation assay, targeting-sequence short cassette design C [2] was 29.1. The luciferase induction, in vitro T cell activation assay, targeting-sequence short cassette design D [2] was 29.1, the luciferase induction, in vitro T cell activation assay, targeting-sequence short cassette design E [2] was 28.4 and the luciferase induction, in vitro T cell activation assay, targeting-sequence short cassette design F [2] was 20.4. The luciferase induction, in vitro T cell activation assay, targeting-sequence short cassette design G [2] was 35, the luciferase induction, in vitro T cell activation assay, targeting-sequence short cassette design H [2] was 30.3 and the luciferase induction, in vitro T cell activation assay, targeting-sequence short cassette design I [2] was 22.5. It also gave a luciferase induction, in vitro T cell activation assay, targeting-sequence short cassette design J [2] of 38.1.
